Results reported in patent US20220363623A1, “IMAGING AND THERAPEUTIC COMPOSITIONS” (priority 2019, published 2022).
*1 amine or outer side, *2 acyl side, *3 side chain or, on linkers, in order; H or OH if unused. Where a SMILES comes first, the peptide text is derived from it. Bridges are numbered along the chain shown (N, C = ends). Side-chain parts run from the residue outwards. [ ]: non-standard residue; d: D form. The star is where a group is joined. X1 = O=C([C@@H](Cc1ccccc1)N(c1c(NCCCCCN(O)[*:3])c(=O)c1=O)[*:1])[*:2]; X2 = CC(=O)N(O)CCCCCNC(=O)CCC(=O)N(O)CCCCCN*; Thr(ol) = C[C@@H](O)[C@H](N)CO; Suc = O=C(CCC(=O)[*:2])[*:1]

How the values were obtained:
in vivo [1] = experiment: in vivo; set-up: species or system mice; conditions: female, Balb/c nude, mouse, iv, total radioactivity
Method: (§1) PET-CT imaging and Biodistribution of Octreotate/tide Tracers. Female Balb/c nude mice (age 9 weeks) were inoculated subcutaneously on the right flank with 3×10^6 AR42J cells in PBS:Matrigel (1:1). Mice were weighed and tumours measured twice weekly using electronic callipers. Tumour volume (mm^3) was calculated as length^2×width/2. 12 mice were assigned for imaging and biodistribution studies (tumour volumes: 170-550 mm^3). DFOSqTIDE (2.5 MBq) and DFOSqTATE (2.2 MBq) were administered intravenously by tail vein injection to mice on. At 1, 2, 4 and 18 hr post injection three mice were anaesthetised using isoflurane and placed on the imaging bed of a G8 PET/CT scanner (Perkin Elmer). A CT scan was performed which was immediately followed by a 10 min static PET scan. PET images were reconstructed using the maximal likelihood and expectation maximization (ML-EM) algorithm. PET images were analysed using VivoQuant (Invicro) and Tumour SUVmax, Tumour SUVmax/background average (TBR) and Tumour SUVmax/liver average (TLR) determined. After imaging at 18 hr mice were euthanised and selected tissues were excised, weighed and counted using a Capintec (Captus 4000e) gamma counter. A separate cohort of 3 mice was harvested at 1 hr post injection for biodistribution analysis. The data was analysed using GraphPad Prism 7 and differences between tracers analysed using a t-test.
(§2) AR42J (rat pancreatic cancer cell line) tumour bearing Balb/c nude mice as described above were injected intravenously via tail vein injection with ^89ZrDFOSqTATE or ^89ZrDFOSqTIDE (2-3 MBq). At 1, 2, 4 and 18 h post-injection the mice were anaesthetised with isoflurane and imaged over 10 min. At 1 hr after injection of DFOSqTIDE and DFOSqTATE, uptake into kidney, tumour and liver was observed. Representative PET images of mice injected with DFOSqTIDE and DFOSqTATE are shown in FIG. 12 and quantitation of the tumour SUVmax for each radiotracer is summarised in FIG. 13a.
(§3) ^68GaDFOSq-TIDE and ^68GaDFOSq-TATE tracers were injected (2-3 MBq, 1 μg, 0.5 nmol) intravenously via tail vein to AR42J (rat pancreatic cancer cell line) tumour bearing Balb/c nude mice. PET images were acquired at 1 and 2 h post-injection (FIGS. 15a and b). […] Quantification of the uptake in the images using Standard Uptake Value (SUVmax=radioactivity in a tissue/injected activity/BW) confirms the higher uptake for ^68GaDFOSq-TATE (1 h; SUVmax 1.8±0.2, compared to 1.21±0.20, FIG. 15c). The higher tumor uptake of ^68GaDFOSqTATE was also associated with a higher degree of tumor retention at 2 h post injection with only a 5% reduction in SUVmax whereas the tumor SUVmax for ^68GaDFOSqTIDE reduced by 30% ^68GaDFOSqTATE at 2 h post injection. Both tracers clear rapidly from the blood and there is low uptake in bone consistent with stable gallium-68 complexes as well as low uptake in muscle. Both tracers have significant uptake in the kidneys and bladder.

[2] = system: AR42J (rat pancreatic cancer cell line) tumour; experiment: in vivo; set-up: species or system mice; conditions: mouse
Method: as §1, §2, §3

in vivo [3] = experiment: in vivo; set-up: species or system mice; conditions: female, Balb/c nude, mouse, iv, total radioactivity; remark: listed apart in the source
Method: as §1, with “t-test. The high tumor uptake was confirmed by an ex vivo biodistribution study in the same mouse model where mice were injected with either ^68GaDFOSq-TIDE and ^68GaDFOSq-TATE (2-3 MBq, 1 μg, 0.5 nmol) and then euthanised at either 1 h or 2 h after administration. The amount of injected activity per gram of tissue (% IA/g) in the tumor and major organs was quantified (FIG. 16).” for “t-test.”

in vivo [4] = experiment: in vivo; set-up: species or system mice; conditions: male, mouse, iv, total radioactivity
Method: PET-CT imaging and Biodistribution. Male Balb/c nude mice (age 8.5 weeks) or Male NSG mice (age 12 weeks) were inoculated subcutaneously on the right flank with 6×10^6 LNCap cells in PBS:Matrigel (1:1). Mice were weighed and tumours measured twice weekly using electronic callipers. Tumour volume (mm^3) was calculated as length×width×height×π/6. Mice were assigned for imaging and biodistribution studies (tumour volumes: 85-450 mm3). ^89Zr-DFOSq-PSMA tracers were then administered intravenously by tail vein injection to 6 mice. At 1, 2, 4 and 18 hr post injection three mice were anaesthetised using isoflurane and placed on the imaging bed of a G8 PET/CT scanner (Perkin Elmer). A CT scan was performed and followed immediately by a 10 min static PET scan. PET images were reconstructed using the maximal likelihood and expectation maximization (ML-EM) algorithm. PET Images were analysed using VivoQuant (Invicro) and Tumour SUVmax or Tumour SUVmax/background average (TBR) determined. After imaging at 18 hr mice were euthanised and selected tissues were excised, weighed and counted using a Capintec (Captus 4000e) gamma counter. A separate cohort of 3 mice was harvested at 1 hr post injection for biodistribution analysis as above. The data was analysed using GraphPad Prism 7 and differences between tracers analysed using a t-test.
^89Zr Labelled tracers: The ^89Zr radiolabelled PSMA tracers were injected intravenously via tail vein to LNCaP (human PSMA expressing prostate cancer cell line) tumour bearing mice. At 1, 2, 4 and 18 h post-injection the mice were anaesthetised with isoflurane and imaged over 10 min. The representative PET images of mice injected with ^89Zr radiolabelled PSMA tracers at 1 and 18 hr are shown in FIG. 1 and quantitation of the Tumour SUVmax for each tracer is shown in FIG. 2a. […] There was a trend for higher tumour SUVmax for (4) tracer compared to all other tracers at all time points. […] A comparison of tumour uptake values is shown in FIG. 2b and the tissue biodistribution data for the tracers at 1 and 18 hr is summarised in FIG. 3.
^68Ga Labelled tracers: Representative PET images of mice injected with ^68Ga(1) and ^68Ga(4) are shown in FIG. 4 and quantitation of the tumour SUVmax is shown in FIG. 5a. […] Tumour uptake of ^68Ga(4) was 1.6 and 1.8 fold higher than ^68Ga(1) at 1 and 2 hr p.i., respectively. This is consistent with the biodistribution results where tumour % ID/g for ^68Ga(4) was higher than ^68Ga(1) at 1 hr (10.8±1.3 vs 6.5±0.4) and at 2.5 hr (8.6±1.0 vs 4.1±0.5) p.i. […] (6.5±0.4% ID/g at 1 hr vs 4.1±0.5% ID/g at 2.5 hr). In contrast, there was no significant change in ^68Ga(4) tumour retention at 1 and 2.5 p.i. (10.8±1.3% ID/g vs […], FIG. 5b).

LNCap cells = experiment: Cell binding and internalization studies in LNCap cells; type: cell-based, human
Method: (§4) Cell binding and internalization studies. LNCap cells (150,000/well) were plated in RPMI 1640 medium containing 10% FBS into wells of a 24 well plate pre-coated with 0.05% poly-L-lysine and incubated overnight at 37° C. and 5% CO2. The following day cells were washed twice with PBS and incubated for 1 hour at 37° C. in 1 mL per well internalisation buffer (MEM, 1% FBS). The buffer was then replaced with 1 ml per well of a warmed solution containing 0.5 μCi ^89Zr-DFOsq-PSMA tracers in internalisation buffer. Cells were incubated in triplicate for 5, 15, 30 or 60 min at 37° C. and 5% CO2. At each time point, cells were washed twice with ice-cold PBS and the washes collected for counting (unbound fraction). Cells were then incubated twice for 10 min in saline containing 10 μM PMPA and each wash collected for counting (surface bound fraction). The cells were then solubilised in 1 M NaOH (internalised fraction). Total protein content was determined in this fraction using a BCA protein assay kit (Pierce). A Perkin Elmer 2480 Wizard automatic gamma counter was then used to measure Zr-89 radioactivity in unbound, surface bound and internalised fractions. Surface bound and internalised fractions were expressed as percentage of total added radioactivity per mg of protein. Non-specific membrane binding and internalisation was determined by incubating cells with the ^89Zr-DFOSq-PSMA tracers in the presence of excess (10 μM) PMPA. ^89Zr-DFOSq-PSMA tracers uptake at 60 min was also determined in DU145 cells (seeded at 125,000 cells/well), a PSMA negative cell line. The raw data was analysed using GraphPad Prism 7.

DU145 cells = experiment: Tracer uptake in DU145 cells, a PSMA negative cell line; type: cell-based; conditions: 60 min, in words
Method: as §4, with “At each time point, cells were washed twice with ice-cold PBS and the washes collected for counting (unbound fraction). Cells were then incubated twice for 10 min in saline containing 10 μM PMPA and each wash collected for counting (surface bound fraction). The cells were then solubilised in 1 M NaOH (internalised fraction).” left out

[5] = system: AR42J (rat pancreatic cancer cell line) tumour; experiment: in vivo; set-up: species or system mice; conditions: female, Balb/c nude, mouse, iv, 18 h
Method: as §1, with “t-test. The high tumor uptake was confirmed by an ex vivo biodistribution study in the same mouse model where mice were injected with either ^68GaDFOSq-TIDE and ^68GaDFOSq-TATE (2-3 MBq, 1 μg, 0.5 nmol) and then euthanised at either 1 h or 2 h after administration. The amount of injected activity per gram of tissue (% IA/g) in the tumor and major organs was quantified (FIG. 16).” for “t-test.”

[6] = Tumour uptake % IA/g 1 h post injection

Structure (SMILES): CC(=O)N(O)CCCCCNC(=O)CCC(=O)N(O)CCCCCNC(=O)CCC(=O)N(O)CCCCCNc1c(N[C@H](Cc2ccccc2)C(=O)N[C@H]2CSSC[C@@H](C(=O)N[C@H](CO)[C@@H](C)O)NC(=O)[C@H]([C@@H](C)O)NC(=O)[C@H](CCCCN)NC(=O)[C@@H](Cc3c[nH]c4ccccc34)NC(=O)[C@H](Cc3ccc(O)cc3)NC2=O)c(=O)c1=O (68Ga complex, metal not drawn) [^68GaDFOSqTIDE] (H-[X1]([Suc-X2])CY[dW]KTC[Thr(ol)]; disulfide 2-7)
- SUV at 1 h (in vivo [1]): 1.21 ± 0.2 SUV
- Reduction in tumor SUVmax at 2 h post injection [2]: 30%
- tissue uptake at 1 h (in vivo [3]; [6]): 8.81 ± 1.03 %ID/g
- tissue uptake at 2 h (in vivo [3]; Tumour uptake % IA/g 2 h post injection): 4.4 ± 1.1 %ID/g
- tissue uptake at 1 h (in vivo [3]; Uptake in the kidneys): 37.6 ± 3.5 %ID/g

Structure (SMILES): CC(=O)N(O)CCCCCNC(=O)CCC(=O)N(O)CCCCCNC(=O)CCC(=O)N(O)CCCCCNc1c(NCc2ccc(C(=O)NCCCCC(NC(=O)NC(CCC(=O)O)C(=O)O)C(=O)O)cc2)c(=O)c1=O (centres unmarked) [(1), DFOSq-PhPSMA ligand]
- tissue uptake at 1 h (in vivo [4]; Tumour Uptake % ID/g 1 h pi): 5.4 %ID/g
- tissue uptake at 18 h (in vivo [4]; Tumour Uptake % ID/g 18 h pi): 2.2 %ID/g
- Cell Uptake % AR/mg protein (60 min) internalized (LNCap cells; 89Zr tracers, 60 min, 37° C.): 7 % AR/mg protein
- Internalised activity in the presence of excess PMPA (LNCap cells; excess (10 μM) PMPA): up to 5 % AR/mg protein
- Surface binding (LNCap cells; presence and absence of excess PMPA, all timepoints): 2 % AR/mg protein
- Binding in DU145, PSMA negative cell line (DU145 cells): Minimal binding

Structure (SMILES): CC(=O)N(O)CCCCCNC(=O)CCC(=O)N(O)CCCCCNC(=O)CCC(=O)N(O)CCCCCNc1c(N[C@H](Cc2ccccc2)C(=O)N[C@H]2CSSC[C@@H](C(=O)N[C@H](CO)[C@@H](C)O)NC(=O)[C@H]([C@@H](C)O)NC(=O)[C@H](CCCCN)NC(=O)[C@@H](Cc3c[nH]c4ccccc34)NC(=O)[C@H](Cc3ccc(O)cc3)NC2=O)c(=O)c1=O [DFOSqTIDE] (H-[X1]([Suc-X2])CY[dW]KTC[Thr(ol)]; disulfide 2-7)
- Tumour SUVmax Clearance % [2]: 55%
- tissue uptake at 1 h (in vivo [3]; Tumour Uptake % ID/g 1 h pi): 3.4 ± 0.4 %ID/g
- tissue uptake at 18 h (in vivo [3]; Tumour Uptake % ID/g 18 h pi): 1.7 ± 0.1 %ID/g
- Tumour Uptake % ID/g 18 h pi [5]: 1.5±0.1 % ID/g

Structure (SMILES): CC(=O)N(O)CCCCCNC(=O)CCC(=O)N(O)CCCCCNC(=O)CCC(=O)N(O)CCCCCNc1c(N[C@H](Cc2ccccc2)C(=O)N[C@H]2CSSC[C@@H](C(=O)N[C@H](C(=O)O)[C@@H](C)O)NC(=O)[C@H]([C@@H](C)O)NC(=O)[C@H](CCCCN)NC(=O)[C@@H](Cc3c[nH]c4ccccc34)NC(=O)[C@H](Cc3ccc(O)cc3)NC2=O)c(=O)c1=O (68Ga complex, metal not drawn) [^68GaDFOSqTATE] (H-[X1]([Suc-X2])CY[dW]KTCT-OH; disulfide 2-7)
- SUV at 1 h (in vivo [1]): 1.8 ± 0.2 SUV
- Reduction in tumor SUVmax at 2 h post injection [2]: 5%
- tissue uptake at 2 h (in vivo [3]; Tumor uptake % ID/g 2 h post injection): 9.22 ± 0.92 %ID/g
- tissue uptake at 1 h (in vivo [3]; [6]): 9.8 ± 2.33 %ID/g
- tissue uptake at 1 h (in vivo [3]; Uptake in the kidneys): 16 ± 3.27 %ID/g
